The numbers were not newly measured in paper PMC3902607, which cites them from elsewhere.

Broadly, the Kd is the free concentration of one partner at which half of the binding sites on the other are occupied at equilibrium, for simple one-to-one binding.

A value given as a limit tells only on which side of the number the result lay.

The data set has as its target RXFP2 (Homo sapiens) (UniProt Q8WXD0).
Sequence of UniProt Q8WXD0 (Q8WXD0 whole entry): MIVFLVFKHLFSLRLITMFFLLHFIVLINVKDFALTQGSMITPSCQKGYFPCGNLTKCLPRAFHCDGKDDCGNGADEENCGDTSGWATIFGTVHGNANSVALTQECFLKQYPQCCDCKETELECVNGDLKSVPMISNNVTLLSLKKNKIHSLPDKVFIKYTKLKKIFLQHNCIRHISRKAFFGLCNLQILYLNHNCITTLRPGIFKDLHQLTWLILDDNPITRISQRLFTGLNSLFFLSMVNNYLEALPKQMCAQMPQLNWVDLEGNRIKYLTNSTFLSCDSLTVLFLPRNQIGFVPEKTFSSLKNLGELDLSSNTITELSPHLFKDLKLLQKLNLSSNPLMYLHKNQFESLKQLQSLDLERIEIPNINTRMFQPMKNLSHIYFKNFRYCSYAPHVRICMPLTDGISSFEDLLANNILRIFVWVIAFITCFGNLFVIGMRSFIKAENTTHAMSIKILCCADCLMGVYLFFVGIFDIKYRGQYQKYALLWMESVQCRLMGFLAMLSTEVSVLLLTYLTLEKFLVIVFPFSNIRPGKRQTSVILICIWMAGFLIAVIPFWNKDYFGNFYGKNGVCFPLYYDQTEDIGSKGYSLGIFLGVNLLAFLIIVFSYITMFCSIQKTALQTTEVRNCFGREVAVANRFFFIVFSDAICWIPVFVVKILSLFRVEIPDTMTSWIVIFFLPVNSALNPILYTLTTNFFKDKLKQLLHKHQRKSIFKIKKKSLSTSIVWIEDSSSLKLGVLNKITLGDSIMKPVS

INSL3 (from UniProt P51460): the equilibrium dissociation constant (Kd) was less than 1 nM.
